Data published in publication PMC5940873, “NADH/NADPH bi-cofactor-utilizing and thermoactive ketol-acid reductoisomerase from Sulfolobus acidocaldarius” (Scientific Reports, 2018).

Tests used:
Assay in all cases: purified protein
Type in all cases: biochemical, Sulfolobus acidocaldarius
purified protein [1] = substrate: NC(=O)C1=CN([C@@H]2O[C@H](COP(=O)(O)OP(=O)(O)OC[C@H]3O[C@@H](n4cnc5c(N)ncnc54)[C@H](O)[C@@H]3O)[C@@H](O)[C@H]2O)C=CC1; settings: 5 mM 2S-AL (saturating), 10 mM MgSO4, 100 mM phosphate pH 8.0, 25 °C, varied: cofactor
purified protein [2] = substrate: CC(=O)[C@](C)(O)C(=O)O; settings: 0.22 mM NADPH, 10 mM MgSO4, 100 mM phosphate pH 8.0, 25 °C, racemic 2-acetolactate used, concentration counted as the S enantiomer
purified protein [3] = substrate: NC(=O)C1=CN([C@@H]2O[C@H](COP(=O)(O)OP(=O)(O)OC[C@H]3O[C@@H](n4cnc5c(N)ncnc54)[C@H](OP(=O)(O)O)[C@@H]3O)[C@@H](O)[C@H]2O)C=CC1; settings: 5 mM 2S-AL (saturating), 10 mM MgSO4, 100 mM phosphate pH 8.0, 25 °C, varied: cofactor

B1: Sac-KARI (Sulfolobus acidocaldarius DSM 639) (protein)
chain: MAKIYTDKDVSLDVIKEKRVAVLGYGSQGRAWALNLRDSGIKVSVGLEREGNSWKQAENDGFKPLRTEEAVRNSDIIIFLLPDMIQRTVYLERVKPYLKEGMDLVFAHGFNIHYRLIEPPSNVDVYMIAPKAPGPIVREYFAKGGGVPALVATYQDHSGKALQKALAVAKAIGATRAGVIETTFKEETETDLFGEQVDLVGGVMQLMRYAFQTLVEAGYQPEVAYFETINEMKLIVDLVYEKGFSGMLTAVSDTAKYGGMTVGKMVIDESVKERMKKALDNIRSGKFAEKWVEEYGKGANTIKEGMKEVDNSTEEKVGRSLRDIILRGKPKS
notes: pET-21a NdeI/XhoI, His-tag retained; E. coli BL21(DE3); heat step, Ni-NTA, gel filtration; homodimer ~70 kDa (theoretical ~74 kDa); beta2-alphaB loop LEREGNS; R49, S53, D191, E195, E227, E231
Km (purified protein [1]): 6.0 ± 0.8 µM | kcat (purified protein [1]): 0.056 ± 0.001 s⁻¹ | kcat/Km (purified protein [1]): 9500 ± 1300 M⁻¹ s⁻¹ | Km (purified protein [2]): 140 ± 6 µM | kcat (purified protein [2]): 0.068 ± 0.001 s⁻¹ | kcat/Km (purified protein [2]): 490 ± 20 M⁻¹ s⁻¹ | Km (purified protein [3]): 0.4 ± 0.2 µM | kcat (purified protein [3]): 0.064 ± 0.001 s⁻¹ | kcat/Km (purified protein [3]): 186000 ± 80500 M⁻¹ s⁻¹
